Among the data in article PMC11507936 are partition coefficient values, retold here.

Test [1] concerns the target phosphorylated SARS-CoV-2 Nucleocapsid protein (pN) (SARS-CoV-2) (UniProt P0DTC9). Kind of test: […].
For test [2], the target named is SARS-CoV-2 Nucleocapsid protein (N), unmodified (SARS-CoV-2) (UniProt P0DTC9). The test can be described thus: […].

Turning to “6xHis-GFP-M^104–222 (C-terminal endodomain of the SARS-CoV-2 Membrane protein) (from UniProt P0DTC5 104-222) (domain or fragment)”, the partition coefficient came out at 0.3 in test [1] and 9.8 in test [2].
For “6xHis-GFP-Nsp3^1–111 (ubiquitin-like domain 1 of SARS-CoV-2 Nsp3) (domain or fragment)”, in that order: 2.2 and 12.6.
